T1: mouse Myh (mMyh), His-tagged (mouse, UniProt Q99P21 1-515)
T1 sequence (looked up): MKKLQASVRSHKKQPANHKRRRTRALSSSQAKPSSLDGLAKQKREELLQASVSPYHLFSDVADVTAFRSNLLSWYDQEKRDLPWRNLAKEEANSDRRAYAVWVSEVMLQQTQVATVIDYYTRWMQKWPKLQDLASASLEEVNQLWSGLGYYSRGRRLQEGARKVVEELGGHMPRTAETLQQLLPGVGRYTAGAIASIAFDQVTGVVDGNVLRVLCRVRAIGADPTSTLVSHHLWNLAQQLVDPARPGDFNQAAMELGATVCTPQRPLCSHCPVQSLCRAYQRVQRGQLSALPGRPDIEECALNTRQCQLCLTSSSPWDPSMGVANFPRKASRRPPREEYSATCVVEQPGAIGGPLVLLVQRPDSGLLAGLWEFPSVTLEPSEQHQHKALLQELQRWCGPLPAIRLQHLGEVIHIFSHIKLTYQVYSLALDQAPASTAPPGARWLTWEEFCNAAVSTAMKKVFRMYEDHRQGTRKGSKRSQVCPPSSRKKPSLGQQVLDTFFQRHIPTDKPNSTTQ

B1: GST-hHus1N(+) (residues 1-155) (domain or fragment, human, UniProt O60921 1-155, looked up)
chain: MKFRAKIVDGACLNHFTRISNMIAKLAKTCTLRISPDKLNFILCDKLANGGVSMWCELEQENFFNEFQMEGVSAENNEIYLELTSENLSRALKTAQNARALKIKLTNKHFPCLTVSVELLSMSSSSRIVTHDIPIKVIPRKLWKDLQEPVVPDPD
B2: GST-tagged hHus1 (wild type) (natural protein, human, UniProt O60921 1-280, looked up)
chain: MKFRAKIVDGACLNHFTRISNMIAKLAKTCTLRISPDKLNFILCDKLANGGVSMWCELEQENFFNEFQMEGVSAENNEIYLELTSENLSRALKTAQNARALKIKLTNKHFPCLTVSVELLSMSSSSRIVTHDIPIKVIPRKLWKDLQEPVVPDPDVSIYLPVLKTMKSVVEKMKNISNHLVIEANLDGELNLKIETELVCVTTHFKDLGNPPLASESTHEDRNVEHMAEVHIDIRKLLQFLAGQQVNPTKALCNIVNNKMVHFDLLHEDVSLQYFIPALS
B3: GST-hHus1 K136A (natural protein, human, UniProt O60921 1-280, looked up)
chain: MKFRAKIVDGACLNHFTRISNMIAKLAKTCTLRISPDKLNFILCDKLANGGVSMWCELEQENFFNEFQMEGVSAENNEIYLELTSENLSRALKTAQNARALKIKLTNKHFPCLTVSVELLSMSSSSRIVTHDIPIAVIPRKLWKDLQEPVVPDPDVSIYLPVLKTMKSVVEKMKNISNHLVIEANLDGELNLKIETELVCVTTHFKDLGNPPLASESTHEDRNVEHMAEVHIDIRKLLQFLAGQQVNPTKALCNIVNNKMVHFDLLHEDVSLQYFIPALS
B4: GST-hHus1 V137A (natural protein, human, UniProt O60921 1-280, looked up)
chain: MKFRAKIVDGACLNHFTRISNMIAKLAKTCTLRISPDKLNFILCDKLANGGVSMWCELEQENFFNEFQMEGVSAENNEIYLELTSENLSRALKTAQNARALKIKLTNKHFPCLTVSVELLSMSSSSRIVTHDIPIKAIPRKLWKDLQEPVVPDPDVSIYLPVLKTMKSVVEKMKNISNHLVIEANLDGELNLKIETELVCVTTHFKDLGNPPLASESTHEDRNVEHMAEVHIDIRKLLQFLAGQQVNPTKALCNIVNNKMVHFDLLHEDVSLQYFIPALS
B5: GST-hHus1N (residues 1-146) (domain or fragment, human, UniProt O60921 1-146, looked up)
chain: MKFRAKIVDGACLNHFTRISNMIAKLAKTCTLRISPDKLNFILCDKLANGGVSMWCELEQENFFNEFQMEGVSAENNEIYLELTSENLSRALKTAQNARALKIKLTNKHFPCLTVSVELLSMSSSSRIVTHDIPIKVIPRKLWKDL
B6: GST-hHus1C (residues 147-280) (domain or fragment, human, UniProt O60921 147-280, looked up)
chain: QEPVVPDPDVSIYLPVLKTMKSVVEKMKNISNHLVIEANLDGELNLKIETELVCVTTHFKDLGNPPLASESTHEDRNVEHMAEVHIDIRKLLQFLAGQQVNPTKALCNIVNNKMVHFDLLHEDVSLQYFIPALS
B7: GST-hHus1N(-) (residues 1-133) (domain or fragment, human, UniProt O60921 1-133, looked up)
chain: MKFRAKIVDGACLNHFTRISNMIAKLAKTCTLRISPDKLNFILCDKLANGGVSMWCELEQENFFNEFQMEGVSAENNEIYLELTSENLSRALKTAQNARALKIKLTNKHFPCLTVSVELLSMSSSSRIVTHDI

Each binder was assayed against T1, mouse Myh (mMyh), His-tagged (assay: pull-down).

Binding result, binds:
B1, B2, B3, B4, B5, B6, B7
